The results in this text go back to publication PMC9482650, “Quantitative fragmentomics allow affinity mapping of interactomes” (Nature Communications, 2022).

Experiment in all cases: holdup assay
Design in all cases: key: below the threshold = too weak to quantify, mostly under pKd 3.1 to 4
Conditions in all cases: plain residues with an end cap or a label only (N-terminal biotin on a linker: ado-ado)

Assay [1] concerns the target PICK1, Q9NRD5.
The target in assay [2] is T1, DLG3_1, Q92796.
T1 sequence (Q92796 125-227, limits assumed, looked up): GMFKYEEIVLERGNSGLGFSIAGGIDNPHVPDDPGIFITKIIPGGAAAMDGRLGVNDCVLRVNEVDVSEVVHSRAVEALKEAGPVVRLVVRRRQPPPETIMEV

The target of assay [3] is HTRA1, Q92743.
Sequence of HTRA1, Q92743 (Q92743 360-477): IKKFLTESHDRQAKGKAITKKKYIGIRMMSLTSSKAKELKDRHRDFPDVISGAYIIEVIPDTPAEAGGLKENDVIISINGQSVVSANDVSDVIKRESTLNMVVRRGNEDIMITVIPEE
The target of assay [4] is MAST1, Q9Y2H9.
Sequence of MAST1, Q9Y2H9 (Q9Y2H9 962-1065): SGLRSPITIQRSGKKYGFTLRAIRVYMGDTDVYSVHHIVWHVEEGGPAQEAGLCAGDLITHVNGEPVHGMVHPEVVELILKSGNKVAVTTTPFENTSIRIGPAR
In assay [5] the target is PTPN3, P26045.
Sequence of PTPN3, P26045 (P26045 505-587): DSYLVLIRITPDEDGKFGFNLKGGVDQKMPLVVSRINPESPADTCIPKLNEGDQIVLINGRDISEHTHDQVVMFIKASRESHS
For assay [6], the target named is T2, TX1BP3, O14907.
T2 sequence (O14907 10-122, limits assumed, looked up): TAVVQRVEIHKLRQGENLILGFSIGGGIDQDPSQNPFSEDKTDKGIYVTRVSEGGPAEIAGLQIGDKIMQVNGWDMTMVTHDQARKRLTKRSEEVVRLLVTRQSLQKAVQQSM

The target in assay [7] is NHERF4_2, Q86UT5.
Sequence of NHERF4_2, Q86UT5 (Q86UT5 220-308): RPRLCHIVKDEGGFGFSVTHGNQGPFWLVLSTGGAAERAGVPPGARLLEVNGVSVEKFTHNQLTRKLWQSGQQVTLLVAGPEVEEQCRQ
Assay [8] concerns the target T3, NHERF3_4, Q5T2W1.
T3 sequence (Q5T2W1 373-468, limits assumed, looked up): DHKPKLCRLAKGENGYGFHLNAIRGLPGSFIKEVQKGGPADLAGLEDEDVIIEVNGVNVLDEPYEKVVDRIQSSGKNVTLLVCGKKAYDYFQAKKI

Assay [9] has as its target AHNAK1, Q09666.
Assay [10] deals with IL16_3, Q14005.
Sequence of IL16_3, Q14005 (Q14005 1107-1207): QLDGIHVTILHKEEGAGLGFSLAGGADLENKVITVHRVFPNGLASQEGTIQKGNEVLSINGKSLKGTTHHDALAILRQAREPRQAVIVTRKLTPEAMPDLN
Assay [11] deals with T4, ARHGEF11, O15085.
T4 sequence (O15085 42-136, limits assumed, looked up): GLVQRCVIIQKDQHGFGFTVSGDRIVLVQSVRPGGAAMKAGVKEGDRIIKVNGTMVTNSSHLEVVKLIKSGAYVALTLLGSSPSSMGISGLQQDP

Assay [12] has as its target TJP1_2, Q07157.
For assay [13], the target named is T5, MPDZ_12, O75970.
T5 sequence (O75970 1857-1958, limits assumed, looked up): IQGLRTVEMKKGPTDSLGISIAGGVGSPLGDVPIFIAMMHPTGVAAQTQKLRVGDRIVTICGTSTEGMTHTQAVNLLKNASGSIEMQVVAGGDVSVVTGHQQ

The target of assay [14] is T6, APBA3_1, O96018.
T6 sequence (O96018 389-490, limits assumed, looked up): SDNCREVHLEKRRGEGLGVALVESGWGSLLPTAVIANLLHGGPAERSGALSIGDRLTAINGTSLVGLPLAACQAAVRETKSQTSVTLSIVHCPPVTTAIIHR

For assay [15], the target named is T7, MPDZ_5, O75970.
T7 sequence (O75970 695-796, limits assumed, looked up): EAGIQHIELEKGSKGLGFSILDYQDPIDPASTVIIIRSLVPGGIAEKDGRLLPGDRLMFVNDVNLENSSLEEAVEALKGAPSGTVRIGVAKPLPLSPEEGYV

In assay [16] the target is T8, LIN7A, O14910.
T8 sequence (O14910 103-200, limits assumed, looked up): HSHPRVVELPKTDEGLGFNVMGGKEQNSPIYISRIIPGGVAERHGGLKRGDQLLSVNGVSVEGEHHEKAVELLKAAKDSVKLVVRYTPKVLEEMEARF

Assay [17] addresses MAGI2_5, Q86UL8.
For assay [18], the target named is DLG2_3, Q15700.
Assay [19] addresses T9, DFNB31_3, Q9P202.
T9 sequence (Q9P202 811-907, limits assumed, looked up): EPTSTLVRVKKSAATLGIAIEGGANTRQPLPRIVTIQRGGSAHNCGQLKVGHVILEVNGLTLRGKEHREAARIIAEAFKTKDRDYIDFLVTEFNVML

Assay [20] has as its target T10, LRRC7, Q96NW7.
T10 sequence (Q96NW7 1440-1537, limits assumed, looked up): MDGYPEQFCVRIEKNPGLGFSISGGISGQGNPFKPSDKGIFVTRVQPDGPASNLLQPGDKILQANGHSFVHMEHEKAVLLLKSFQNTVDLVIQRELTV

In assay [21] the target is DLG1_3, Q12959.
Sequence of DLG1_3, Q12959 (Q12959 457-571): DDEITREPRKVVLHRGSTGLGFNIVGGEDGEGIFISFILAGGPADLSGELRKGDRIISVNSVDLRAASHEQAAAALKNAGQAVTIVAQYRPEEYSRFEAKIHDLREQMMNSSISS
For assay [22], the target named is NOS1, P29475.
Sequence of NOS1, P29475 (P29475 9-101): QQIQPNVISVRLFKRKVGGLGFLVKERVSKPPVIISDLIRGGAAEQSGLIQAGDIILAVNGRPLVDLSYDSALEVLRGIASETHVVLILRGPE
Assay [23] addresses T11, MPDZ_10, O75970.
T11 sequence (O75970 1624-1722, limits assumed, looked up): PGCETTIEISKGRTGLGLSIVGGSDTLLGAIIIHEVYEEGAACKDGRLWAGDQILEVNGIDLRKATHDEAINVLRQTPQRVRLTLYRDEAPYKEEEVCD

The target of assay [24] is T12, PDZRN3_1, Q9UPQ7.
T12 sequence (Q9UPQ7 244-349, limits assumed, looked up): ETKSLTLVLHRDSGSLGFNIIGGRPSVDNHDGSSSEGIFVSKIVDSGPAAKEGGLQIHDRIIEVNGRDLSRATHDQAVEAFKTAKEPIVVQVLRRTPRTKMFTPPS

Sequence of PICK1, Q9NRD5 (Q9NRD5 17-115): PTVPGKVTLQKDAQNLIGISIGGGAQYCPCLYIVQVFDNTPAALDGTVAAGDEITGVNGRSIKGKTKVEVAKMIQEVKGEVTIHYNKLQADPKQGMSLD
Sequence of TJP1_2, Q07157 (Q07157 181-274): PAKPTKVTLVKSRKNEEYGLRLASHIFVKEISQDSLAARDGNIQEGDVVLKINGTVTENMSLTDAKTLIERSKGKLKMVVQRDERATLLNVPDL
Sequence of MAGI2_5, Q86UL8 (Q86UL8 915-1017): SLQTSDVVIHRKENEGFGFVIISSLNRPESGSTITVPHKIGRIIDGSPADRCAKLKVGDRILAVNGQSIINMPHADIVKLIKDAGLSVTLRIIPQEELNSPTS
Sequence of AHNAK1, Q09666 (Q09666 4-100): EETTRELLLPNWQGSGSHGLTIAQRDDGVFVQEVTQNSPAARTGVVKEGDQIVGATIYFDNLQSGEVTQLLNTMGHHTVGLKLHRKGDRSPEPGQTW

As usually defined, the pKd is the Kd on a negative log10 scale, so that one unit is a factor of ten. On to KEKASTETEC [TRPM1, Q7Z4N2], for which the pKd entry in [1] is “below the threshold”; in assay [2], “below the threshold”; in assay [3] it was 3.62; in assay [4], 4.09; in [5], 4.9; in [6] it was “below the threshold”. Further, the pKd result in assay [7], in [8], in [9], in assay [10], in [11] and in [12] was “below the threshold” each time. Also, the pKd entry in assay [13], in assay [14], in assay [15], in assay [16], in assay [17] and in assay [18] was “below the threshold” throughout. The pKd in [19] was 3.64; in assay [20] it was “below the threshold”; in assay [21], “below the threshold”; in assay [22] it was “below the threshold”; in [23], “below the threshold”; in [24] it was “below the threshold”.

In the case of RDYTQSSSSL [GRM5, P41594], the pKd in assay [1] was 4.11; in assay [2] it was “below the threshold”; in [3] it was “below the threshold”; in [4], 4.67; in [5], 4.27; in assay [6], 3.53. For the same molecule, the pKd entry in [7] is “below the threshold”; in assay [8] it was 3.64; in [9] it was “below the threshold”; in assay [10] it was “below the threshold”; in assay [11] it was 3.79; in assay [12], “below the threshold”. Moreover, the pKd entry in assay [13], in [14], in assay [15], in assay [16], in assay [17] and in assay [18] was “below the threshold” each time. In addition, the pKd entry is “below the threshold” in assay [19]; “below the threshold” in assay [20]; “below the threshold” in assay [21]; “below the threshold” in assay [22]; “below the threshold” in assay [23]; 3.56 in [24].

QKASRNESTF [POLR1D, P0DPB6]: the pKd in [1] was 4.01; in assay [2], “below the threshold”; in [3] it was “below the threshold”; in assay [4], 4.08; in assay [5], 4.62; in assay [6], “below the threshold”. In addition, the pKd entry in assay [7], in [8], in assay [9], in [10], in [11] and in assay [12] was “below the threshold” throughout. In addition, the pKd entry in assay [13] is “below the threshold”; in assay [14], “below the threshold”; in assay [15] it was “below the threshold”; in assay [16], “below the threshold”; in [17], “below the threshold”; in assay [18] it was 3.82. Also, the pKd entry in assay [19], in assay [20], in assay [21], in assay [22], in [23] and in [24] was “below the threshold” each time.

KIEDVEITLV [FCHSD2, O94868]: the pKd result in assay [1] was “below the threshold”; in assay [2], “below the threshold”; in assay [3], 5.5; in assay [4] it was 4.16; in [5], 3.5; in assay [6], 3.98. Besides, the pKd result in assay [7] was “below the threshold”; in assay [8], “below the threshold”; in [9], “below the threshold”; in [10] it was “below the threshold”; in assay [11] it was 4.42; in assay [12], “below the threshold”. In addition, the pKd entry in [13] was “below the threshold”; in assay [14], “below the threshold”; in [15] it was “below the threshold”; in assay [16], “below the threshold”; in assay [17] it was 5.47; in [18], “below the threshold”. The pKd in assay [19] is 4.79; in assay [20], “below the threshold”; in assay [21], 3.59; in assay [22], 3.8; in assay [23], 3.49; in assay [24], “below the threshold”.
